B1: 1SD*/2DD dsDNA 29 bp (dsDNA)
DNA 1: GCGCATATGGAGCGTTTCCAAAGTCTTAG
DNA 2: CTAAGACTTTGGAAACGCTCCATATGCGC

Legend:
Assay in all cases: EMSA
[1] = biological target: T1, BLM HRDC domain WT (Homo sapiens, UniProt P54132 1210-1294)
[2] = biological target: T1, BLM HRDC domain WT; remark: listed apart in the source
[3] = biological target: BLM HRDC Y1237A (Homo sapiens, UniProt P54132 1210-1294, Y1237A)
[4] = biological target: BLM HRDC T1243A (Homo sapiens, UniProt P54132 1210-1294, T1243A)
Chain of BLM HRDC T1243A (P54132 1210-1294 T1243A): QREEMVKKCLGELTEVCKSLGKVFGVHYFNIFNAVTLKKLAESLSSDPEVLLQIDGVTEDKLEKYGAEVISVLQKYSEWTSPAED

T1 sequence (P54132 1210-1294): as the sequence (P54132 1210-1294 T1243A) above, with A34T counted along it
Chain of BLM HRDC Y1237A (P54132 1210-1294 Y1237A): as the sequence (P54132 1210-1294 T1243A) above, with Y28A, A34T counted along it

Binder	binding result [1]	Kd [2]	binding result [3]	binding result [4]
B1	no binding	–	–	–
GCGCATATGGAGCGTTTCCAAAGTCTTAG (ssDNA) [1SD* ssDNA 29 nt]	–	~100 µM	binds	binds

Reference: article PMC2995041
